The values below come from patent US20190016816A1 (APTEVO RESEARCH AND DEVELOPMENT, published 2019).

One assay addresses T1, FcγRIIIa (CD16a Phe158) (UniProt P08637 17-254, limits assumed).
T1 construct: whole, on cells; allotype Phe158 as printed
Description: flow cytometry, CHO cells stably expressing CD16a Phe158, fluorescent anti-human IgG secondary, MFI (mean). The text has this:
ALG.APV-210 contains mutations introduced to prevent interaction with Fcγ receptors (FcγR) that could lead to FcγR-mediated T-cell activation or ADCC, ADCP, CDC etc. Binding of ALG.APV-210 was therefore tested on CHO cell transfectants stably expressing the following FcγR: FcγRI (CD64), FcγRIIa (CD32a His131), FcγRIIb (CD32b), FcγRIIIa (CD16a Val158 and CD16a Phe158), and FcγRIIIb (CD16b). Untransfected CHO cells were used as negative control. A control human IgG1 molecule was used as a positive control. Different concentrations of ALG.APV-210 or control IgG1 were incubated with the FcγR-expressing cell lines, washed, and labeled with a secondary anti-human IgG reagent. Binding of ALG.APV-210 and the control IgG1 was detected by flow cytometry.
For orientation: Flow cytometry measures light scatter and fluorescence of single cells or particles in a stream.

Assay [1] deals with T2, human 5T4 on cells (human, UniProt Q13641 32-420).
T2 construct: also called TPBG; hu5T4
T2 sequence: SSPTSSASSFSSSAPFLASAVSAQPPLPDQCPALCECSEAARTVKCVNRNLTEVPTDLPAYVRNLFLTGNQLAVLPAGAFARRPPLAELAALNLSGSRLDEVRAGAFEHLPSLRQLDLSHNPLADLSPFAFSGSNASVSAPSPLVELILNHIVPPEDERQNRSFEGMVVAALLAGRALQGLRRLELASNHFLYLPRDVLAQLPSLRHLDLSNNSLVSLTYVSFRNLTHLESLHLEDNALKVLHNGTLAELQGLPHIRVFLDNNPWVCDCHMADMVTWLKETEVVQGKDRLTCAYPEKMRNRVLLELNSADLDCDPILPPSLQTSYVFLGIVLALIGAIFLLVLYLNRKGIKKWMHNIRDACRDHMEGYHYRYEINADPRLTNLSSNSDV
Kind of assay: flow cytometry, CT26-hu5T4^high cells, streptavidin-PE, normalized MFI of 2 pooled experiments. As to the method: (§1) Prior to the FACS staining, all cell lines were characterized for their 5T4 expression levels using a receptor density kit (Quantum Simply Cellular, anti-human IgG, Bangs Laboratories, Inc). Adherent cell lines were cultured according to their supplier's instructions and were harvested from their cell culture flasks using Trypsin/EDTA, counted in R10 medium in a Burker chamber, and diluted in FACS buffer (PBS+0.5% BSA, 0.05% NaN₃) to a concentration of 4×10⁶ cells/mL. 50 μL (0.20×10⁶) of cell solution was added to a 96-well FACS staining plate (Falcon #351190). Cells were incubated for 20 min in 4° C. with 50 μL of the biotinylated ALG.APV-210 (2× final concentration). The antibodies were added in a serial dilution starting at 20 μg/mL titrating down in a 12 step ½ dilution down to 0.010 μg/mL. Following 2× washing with FACS buffer, cells were incubated for 30 min in 4° C. with 100 μL of a secondary antibody (streptavidin-PE, BD #554061, diluted 1/500). […] Cells were analysed for ALG.APV-210 binding using flow cytometry (FACSVerse) by gating on single cells. MFI values (secondary antibody only subtracted) from 1 out of 2 independent experiments, as well as normalized data and EC₅₀-values of pooled data from 2 experiments were determined and plotted using GraphPad Prism 7, non-linear regression log (agonist) vs. normalized response—variable slope.

Assay [2] addresses T2, human 5T4 on cells. Description: flow cytometry, HT-29 cells, streptavidin-PE, normalized MFI of 2 pooled experiments. The protocol: as §1
Assay [3] concerns the target T2, human 5T4 on cells. Description: flow cytometry, JAR cells, streptavidin-PE, normalized MFI of 2 pooled experiments. As to the method: as §1
Assay [4] concerns the target T2, human 5T4 on cells. Kind of assay: flow cytometry, CT26-hu5T4^int cells, streptavidin-PE, normalized MFI of 2 pooled experiments. As to the method: as §1
The target of another assay is T3, human CD137 on cells (human, UniProt Q07011 24-255).
T3 construct: also called 4-1BB; TNFRSF9 (CHO-K1/human CD137 cells)
T3 sequence (Q07011 24-255 limits assumed): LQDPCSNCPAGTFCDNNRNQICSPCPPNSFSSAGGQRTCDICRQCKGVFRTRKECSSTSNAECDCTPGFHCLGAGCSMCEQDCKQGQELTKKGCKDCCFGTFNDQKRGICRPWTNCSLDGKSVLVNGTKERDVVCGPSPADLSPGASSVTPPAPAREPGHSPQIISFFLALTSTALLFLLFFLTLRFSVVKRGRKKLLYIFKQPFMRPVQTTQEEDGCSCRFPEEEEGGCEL
Description: flow cytometry, CHO-K1 cells expressing human CD137, PE anti-human IgG Fc secondary, MFI (median). The protocol:
Binding studies on CHO-K1 cells lines expressing CD137 were performed by standard flow cytometry-based staining procedures. CHO-K1 cells (generated by Alligator) were transfected with human or cynomolgus macaque CD137. A typical experiment would label approximately 100,000 cells per well, in 96-well plates, with a range of 100 nM to 0.05 nM binding molecule in 50 μL of saline buffer with 2% BSA and 2 mM EDTA, for 30 min on ice, followed by washes and incubation with PE-labeled secondary antibody, goat anti-human IgG Fcγ ([…]), for 20 minutes on ice. Signal from bound molecules was detected using a LSR-II™ or a Symphony A3 flow cytometer (BD Biosciences) and analyzed by FlowJo flow cytometry analysis software. Median fluorescence intensity (MFI-median) of bound molecules on live cells was determined after exclusion of doublets cells. Nonlinear regression analysis to determine EC₅₀ values was performed in GraphPad Prism 6® graphing and statistics software.

Assay [5] addresses T2, human 5T4 on cells. Kind of assay: flow cytometry, SKOV-3 cells (endogenous human 5T4), labelled anti-human IgG secondary, MFI (mean). The protocol:
Binding studies were performed by standard flow cytometry-based staining procedures two cell lines expressing 5T4:CHO-K1 cells (obtained from Alligator) transduced with human or cynomolgus macaque 5T4 and SKOV-3 human ovarian adenocarcinoma cells which express (human) 5T4. All labeling and washes were performed in U-bottom 96-well plates in saline buffer with 0.1% BSA and 2 mM EDTA. Cell were plated at approximately 100,000 cells per well and incubated with a range of 100 nM to 0.05 nM concentrations of test molecules in […], for 30 minutes on ice. Cells were washed three times then incubated for another 30 min on ice with fluorescently-labeled secondary polyclonal antibody, F(ab′)² goat anti-human IgG (Jackson ImmunoResearch Laboratories). The cells were then washed twice and the samples acquired in a BD LSRII or a Symphony A3 flow cytometer. The sample files were analyzed using FlowJo software; the mean fluorescence intensity (MFI-mean) or median fluorescence intensity (MFI-median) of the live population of cells in each well was calculated after gating on live cells (forward vs side scatter). Nonlinear regression analysis to determine EC₅₀ values was performed in GraphPad Prism 6® graphing and statistics software.

T1 sequence (P08637 17-254 limits assumed): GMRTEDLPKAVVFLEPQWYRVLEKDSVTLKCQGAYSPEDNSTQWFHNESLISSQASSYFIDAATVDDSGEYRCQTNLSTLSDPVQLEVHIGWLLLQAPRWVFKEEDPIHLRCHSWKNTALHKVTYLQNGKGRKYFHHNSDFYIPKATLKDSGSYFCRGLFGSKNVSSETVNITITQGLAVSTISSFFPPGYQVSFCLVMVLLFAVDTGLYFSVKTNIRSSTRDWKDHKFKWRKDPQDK

B1: ALG.APV-210 (bispecific antibody)
chain: EVQLLESGGGLVQPGGSLRLSCAASGFTFSHGSMYWVRQAPGKGLEWVSSISSGSGSTYYADSVKGRFTISHDNSKNTLYLQMNSLRAEDTAVYYCARSSYYGSYYSIDYWGQGTLVTVSSGGGGSGGGGSGGGGSGGGGSDIQMTQSPSSLSASVGDRVTITCRASQSISSYLNWYQQKPGKAPKLLIYAASSLQSGVPSRFSGSGSGTDFTLTISSLQPEDFATYYCQQYYDNLPTFGQGTKLEIKEPKSSDKTHTCPPCPAPEAAGAPSVFLFPPKPKDTLMISRTPEVTCVVVDVSHEDPEVKFNWYVDGVEVHNAKTKPREEQYNSTYRVVSVLTVLHQDWLNGKEYKCAVSNKALPAPIEKTISKAKGQPREPQVYTLPPSRDELTKNQVSLTCLVKGFYPSDIAVEWESNGQPENNYKTTPPVLDSDGSFFLYSKLTVDKSRWQQGNVFSCSVMHEALHNHYTQKSLSLSPGSGGGGSGGGGSGGGGSPSEVQLLESGGGLVQPGGSLRLSCAASGFTFSSYAMSWVRQAPGKCLEWVSAISGSGGSTYYADSVKGRFTISRDNSKNTLYLQMNSLRAEDTAVYYCARYYGGYYSAWMDYWGQGTLVTVSSGGGGSGGGGSGGGGSGGGGSDIQMTQSPSSLSASVGDRVTITCRASQSISSFLNWYQQKPGKAPKLLIYAASSLQSGVPSRFSGSGSGTDFTLTISSLQPEDSATYYCQQTYGYLHTFGCGTKLEIKR
notes: Optimized ADAPTIR scFv-Fc-scFv homodimer with stabilizing disulfide in the 1210 scFv; also called 5T4-CD137 bispecific antibody
As to B1, the binding result with FcγRIIIa (CD16a Phe158) is “no binding (tested: 1000 nM)”.

B2: biotinylated ALG.APV-210 (bispecific antibody)
chain: EVQLLESGGGLVQPGGSLRLSCAASGFTFSHGSMYWVRQAPGKGLEWVSSISSGSGSTYYADSVKGRFTISHDNSKNTLYLQMNSLRAEDTAVYYCARSSYYGSYYSIDYWGQGTLVTVSSGGGGSGGGGSGGGGSGGGGSDIQMTQSPSSLSASVGDRVTITCRASQSISSYLNWYQQKPGKAPKLLIYAASSLQSGVPSRFSGSGSGTDFTLTISSLQPEDFATYYCQQYYDNLPTFGQGTKLEIKEPKSSDKTHTCPPCPAPEAAGAPSVFLFPPKPKDTLMISRTPEVTCVVVDVSHEDPEVKFNWYVDGVEVHNAKTKPREEQYNSTYRVVSVLTVLHQDWLNGKEYKCAVSNKALPAPIEKTISKAKGQPREPQVYTLPPSRDELTKNQVSLTCLVKGFYPSDIAVEWESNGQPENNYKTTPPVLDSDGSFFLYSKLTVDKSRWQQGNVFSCSVMHEALHNHYTQKSLSLSPGSGGGGSGGGGSGGGGSPSEVQLLESGGGLVQPGGSLRLSCAASGFTFSSYAMSWVRQAPGKCLEWVSAISGSGGSTYYADSVKGRFTISRDNSKNTLYLQMNSLRAEDTAVYYCARYYGGYYSAWMDYWGQGTLVTVSSGGGGSGGGGSGGGGSGGGGSDIQMTQSPSSLSASVGDRVTITCRASQSISSFLNWYQQKPGKAPKLLIYAASSLQSGVPSRFSGSGSGTDFTLTISSLQPEDSATYYCQQTYGYLHTFGCGTKLEIKR
notes: also called ALG.APV-210 (biotinylated for FACS detection)
Broadly, the EC50 is the concentration giving half of the maximal effect. The low end stands for an effect from little substance, the high end for a need for much substance. As for B2, the EC50 with human 5T4 on cells [1] was found to be 20 nM; with human 5T4 on cells [2], 12 nM; with human 5T4 on cells [3], 9 nM; with human 5T4 on cells [4] it was 12 nM.

B3: ALG.APV-187 (bispecific antibody)
chain: EVQLLESGGGLVQPGGSLRLSCAASGFTFSHGSMYWVRQAPGKGLEWVSSISSGSGSTYYADSVKGRFTISHDNSKNTLYLQMNSLRAEDTAVYYCARSSYYGSYYSIDYWGQGTLVTVSSGGGGSGGGGSGGGGSGGGGSDIQMTQSPSSLSASVGDRVTITCRASQSISSYLNWYQQKPGKAPKLLIYAASSLQSGVPSRFSGSGSGTDFTLTISSLQPEDFATYYCQQYYDNLPTFGQGTKLEIKSSEPKSSDKTHTCPPCPAPEAAGAPSVFLFPPKPKDTLMISRTPEVTCVVVDVSHEDPEVKFNWYVDGVEVHNAKTKPREEQYNSTYRVVSVLTVLHQDWLNGKEYKCAVSNKALPAPIEKTISKAKGQPREPQVYTLPPSRDELTKNQVSLTCLVKGFYPSDIAVEWESNGQPENNYKTTPPVLDSDGSFFLYSKLTVDKSRWQQGNVFSCSVMHEALHNHYTQKSLSLSPGSGGGGSGGGGSGGGGSPSEVQLLESGGGLVQPGGSLRLSCAASGFTFSSYAMSWVRQAPGKCLEWVSAISGSGGSTYYADSVKGRFTISRDNSKNTLYLQMNSLRAEDTAVYYCARYYGGYYSAWMDYWGQGTLVTVSSGGGGSGGGGSGGGGSGGGGSDIQMTQSPSSLSASVGDRVTITCRASQSISSFLNWYQQKPGKAPKLLIYAASSLQSGVPSRFSGSGSGTDFTLTISSLQPEDSATYYCQQTYGYLHTFGCGTKLEIKR
notes: Optimized ADAPTIR scFv-Fc-scFv homodimer with stabilizing disulfide in the 1210 scFv
As to B3, the EC50 with human CD137 on cells was found to be 0.9 nM. Further, in the assay with human 5T4 on cells [5], it took 9.2 nM to reach a half-maximal effect (EC50) and the “Maximum MFI” value turned out to be 1800.
